Where “and” joins values, the source holds several entries; their conditions need not be identical. Equal values may be shown once. Read-outs that look alike come from different tables or passages of the source.
Experiments:
[1] = target: FcgRI; experiment: SPR
[2] = target: recombinant human Ep-CAM/Fc (R&D Systems) (human) (UniProt P16422); experiment: SPR
[3] = target: extracellular domain of Ep-CAM (DIGylated) (UniProt P16422); experiment: antigen binding
[4] = target: recombinant human Ep-CAM/Fc (R&D Systems) (human) (UniProt P16422); experiment: SPR; remark: listed apart in the source

Sequence of recombinant human Ep-CAM/Fc (R&D Systems) (human) (P16422 24-265): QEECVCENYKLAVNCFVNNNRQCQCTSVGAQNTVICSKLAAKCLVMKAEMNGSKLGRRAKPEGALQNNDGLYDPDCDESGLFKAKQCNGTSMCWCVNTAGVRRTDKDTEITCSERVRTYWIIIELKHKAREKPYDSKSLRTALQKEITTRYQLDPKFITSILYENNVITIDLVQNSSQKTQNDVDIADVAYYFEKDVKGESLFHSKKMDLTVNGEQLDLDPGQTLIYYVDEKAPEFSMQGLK
Sequence of extracellular domain of Ep-CAM (DIGylated) (P16422 24-265): as above

Substance | Kd [1] [nM] | Kd [2] [nM] | EC50 [3] | Kd [4] [nM]
H3.77_L3 S239D IgG1 (from UniProt P01857 1-330) | 1.37 |  |  | 
Wild-type IgG1 Ep-CAM antibody (17-1A H0L0 variable regions, chimeric human IgG1) |  | 159 | 1.9E-07 ? and 2.5E-07 ? | 158
